The values below come from patent publication US11891642B2, “Biocatalytic techniques” (HYPHA DISCOVERY LIMITED, priority 2018, dated 2024).

B1: SriC12-SriF05: cytochrome P450 SriC12 (SEQ ID NO: 29) co-expressed with ferredoxin SriF05 (SEQ ID NO: 30), native coding sequence (protein, listed as Streptomyces rimosus)
chain 1: MTEALPFPQDRTCPYDPPAGYQPLRDSRPLSRVTLYDGRPAWVVTGHAESRALLTDPRLSADRQNPAFPSPAPRFETLRKVRTPLLGVDDPEHNTQRRMLIPSFSVKRAAALRPRIQEIVDRLLDAMEQQGPPAELVSAFALPVPSMVICALLGVPYADHELFEGLSRTLLQSADPQEVTEARDKLEDYFTALVERKRKEPGDGLLDELIAERLDSGELGHRELVRMAMLLLVAGHETTSNMLSLGTFTLLEHPEQFAALRADPSLLPAAVEELLRFLSIADGMVRVATEDIEIGGVTIRADDGVIFSTSVVNRDGAAYASPDTLDWERSARHHVAFGFGVHQCLGQNLARAEMEIAFGALFARFPGLRLAVPAAEIPVKPAHALQGLVELPVTW
chain 2: MKIDIDTSVCIGSGQCVLTAPGVFTQDDDGFSTLLPGREDGTGDPLVREAARACPVQAIAVTDD
B2: Mutant 10 L171I: L171I mutant of codon optimised cytochrome SriC12, SEQ ID NO: 235 (protein)
chain: MTEALPFPQDRTCPYDPPAGYQPLRDSRPLSRVTLYDGRPAWVVTGHAESRALLTDPRLSADRQNPAFPSPAPRFETLRKVRTPLLGVDDPEHNTQRRMLIPSFSVKRAAALRPRIQEIVDRLLDAMEQQGPPAELVSAFALPVPSMVICALLGVPYADHELFEGLSRTLIQSADPQEVTEARDKLEDYFTALVERKRKEPGDGLLDELIAERLDSGELGHRELVRMAMLLLVAGHETTSNMLSLGTFTLLEHPEQFAALRADPSLLPAAVEELLRFLSIADGMVRVATEDIEIGGVTIRADDGVIFSTSVVNRDGAAYASPDTLDWERSARHHVAFGFGVHQCLGQNLARAEMEIAFGALFARFPGLRLAVPAAEIPVKPAHALQGLVELPVTW
modifications: L171I mutant of SriC12
B3: Mutant 14 L230I: L230I mutant of codon optimised cytochrome SriC12, SEQ ID NO: 237 (protein)
chain: MTEALPFPQDRTCPYDPPAGYQPLRDSRPLSRVTLYDGRPAWVVTGHAESRALLTDPRLSADRQNPAFPSPAPRFETLRKVRTPLLGVDDPEHNTQRRMLIPSFSVKRAAALRPRIQEIVDRLLDAMEQQGPPAELVSAFALPVPSMVICALLGVPYADHELFEGLSRTLLQSADPQEVTEARDKLEDYFTALVERKRKEPGDGLLDELIAERLDSGELGHRELVRMAMILLVAGHETTSNMLSLGTFTLLEHPEQFAALRADPSLLPAAVEELLRFLSIADGMVRVATEDIEIGGVTIRADDGVIFSTSVVNRDGAAYASPDTLDWERSARHHVAFGFGVHQCLGQNLARAEMEIAFGALFARFPGLRLAVPAAEIPVKPAHALQGLVELPVTW
modifications: L230I mutant of SriC12
B4: SriC22: cytochrome P450 from Streptomyces rimosus NRRL-2234, SEQ ID NO: 51 (protein, listed as Streptomyces rimosus)
chain: MTTSPTESTTATPPDSTTASAPGTPPDALPSYVGLHPGEPNVMEPELLNDPYAGYGKLREQGALVRGRFLDDSPVWLVTRFDVVREVMRDPRFINNPSRLPGRTEKDPRAQLIELFGIPDHMARYLVDTILTSDPPDHTRLRRLVSRAFTARRIQDLRPRVEAITDELLDRLPAHAQDGVVDLVEHFAYPLPITVICELVGIDEEDRPLWRQFGADLTSLEPKRIGATVPAMVEHIHKVIGERQSALRDDLLSALIRARDDDGGRLSETEMVTMVLTLVLAGHETTAHLISNGTLALLTHPDQRRLLTEDPGLLPRAVHELMRWCGPIQATQLRYASEDVEVAGTQVHKGDALMFSLVAANHDPRHYTEPEKLDLTRQPAGRAEDHVGFGHGMHYCLGASLARQEGEVAFGKLLARYPEVALALPHEQLEEQERIRQPGSWRLRRLPLRLRPED
B5: SriC14-SriF06: cytochrome P450 SriC14 (SEQ ID NO: 34) with ferredoxin SriF06 (SEQ ID NO: 35) (protein, listed as Streptomyces rimosus)
chain 1: MTETSTAFPAQDAPAFPSDRTCPYGLPETYARLRDSEDALRPVTLFDGRTAWVVTKHETARTLLADPRLSSNRTHPDFPLTSPRLAGLRDRRPAFISMDPPEHGPRRRMTISEFTVKRIKGMRPDIERIVHGFLDEMLAAGPPADLVSRFALPVPSMVICQLLGVPYADHDFFQDASRRLVQSTSAEEATGARDDLERYLDGLITTLESEPGPGLLGALVTRQLADGAIDRDELISNALLLLVAGHETTASMTSLSVITLLEHPEQHAALRDDPSLIPGAVEELLRYLAIADVAGARVATADIEVDGQVIRAGEGVIVVHSIANRDAGVFENPDTFDIHRSARHHLSFGYGVHQCLGQNLARLELEIILSALFERIPTLRLATPVERLTLRPGSTIQGVNELPVTW
chain 2: MHVTADRDVCVGAGMCALTAPGVFDQDDDGLVTVLTSDIGENDRDAVREAGMLCPSGALRVTE
B6: SriC51-SriF08: cytochrome P450 SriC51 (SEQ ID NO: 109) with ferredoxin SriF08 (SEQ ID NO: 110) (protein, listed as Streptomyces rimosus)
chain 1: MTTADTMPLAYPFNDADGLALSETYEQVRDRPGLLRVQMAYGEPAWLATRYADARLVLGDRRFSRAEGLERDEPRQSEGQRDSGILSMDPPDHTRLRTLVAKAFTVHQVEKLRPWVRELTHGLIDELEAAGPPVDLVDRYALPIPVAVICRMLGVPEEDRPKFRTWSDAALSTSSLTAEEFEANREELRAYMAKLIEDHRTTPRDDLMTRLIEARDVGDRLSELELIDLCVGILVAGHETTATQIPNFVLSLLDHPGELERLRAEPALIKSAVEELLRFVPLGSGAGFPRYATEDIEVGGTLVRAGEPVLVAVGAANRDALRFDEPGTLNITRDGNQHLGFGHGVHHCLGAPLARLELQEALIALITRFPKLHVAGDVVWKDQMLVRGPRVMPVGW
chain 2: MTWKAAIDGQQCMASGMCAGIAPDLFVLDGPHARPLQEEIPEDEAALDAADSCPAMAILIRDGEKVVGPRP
B7: SriC20: cytochrome P450 from Streptomyces rimosus NRRL-2234, SEQ ID NO: 47 (protein, listed as Streptomyces rimosus)
chain: MPEIIDLGAYGPDFVADPHPYYAKLRAQGPVHRVRAPEMEPEFPQAWLIVGYDEARAVLADNRFAKDWSRANGSLADSEVLAEWQLMNMLDADPPQHTRLRKLVAREFTTRRVEALRPRVQQITDELLDAMLAAPDGRADLVEALAFPLPMTVICELLGVPDIERDTFRAWSNELVSPTDNEATMTAAREMAAYLDGLIESKRSSPGEDLLSALVRTSDEDGDQLSRQELLGMAFLLLVAGHETTVNLISNGVRALLQHPAQLAALRADPSLLDNAVEEMLRYDGPVETATWRFTAEPVGIGGVEIPAGEIVLVGLAGADRDPERFEAPDTFDITRETRGHVAFGHGIHFCLGAPLARVEGRIAVRTLLDRCPDLALDTAPEALTWRAGMTIRGPQHLPVRWR
B8: SriC01: cytochrome P450 from Streptomyces rimosus NRRL-2234, amino acid sequence SEQ ID NO: 2 (protein, listed as Streptomyces rimosus)
chain: MTETIPFEAVDGAVRPSEEVPVVDLSATGLSDTPLQQAMGLAREHGAVYRRRLHGHEALLVSSLELVTELADENRFAKGVSVALENVREFAGDGLFTAYNDEPNWAKAHDILMPAFALGSMRTYHPAMLKVARRVIGSWDRRAADGTPVDVPDDMTRMTLDTIGLAGFGFDFESFSRATMHPFVEAMVRCLEWSMKRLGREPDGDYTEEDAAFRADADYLASVVDEVIASRTGADGTPGEEAGDDLLGLMLGATHPADGTTLDLANIRNQVITFLIAGHETTSGALSFALYHLLKDPAALRLAQREADELWGDQTDPDPSFEDIGRLPYTRQVLNEALRLWPTAAAFSRQARTDTLLGGRIPLKAGQLVTVLTPMLHRDPAWGDNPELFDPTRFAPEAEAARSPHAYKPFGTGERACIGRQFALHEATMLLAMLVHRYRLIDHSDYRLSIKETLTLKPDGFTLTLARRTPADRAGLRAALAVLPGGAAEPDGTESGTDDGLPTRVRQDTALLLLHGTNYGTCRDFAERIADEATGLGFTTEVAPLDAATGALPTDRPVVIVTASYNGQPTDDAARFVEWLSGDEARAEGVPYAVLGVGDRNWAATYQRVPTLLDERLAALGAERLLPRGEADASGDLNGAVKAFTATLRTELLVRYGDPATIGASTPADATDASYTVREVTGGPLDALAARHGLQPMTVTEAYDLTAPGYPRVKRFLRLTLPEGVTYRTADHLAVLPANGAAAVERAAQVLGVSLEAVLDIRAGAGRGGRDTLPVDRPLTVRQLLTHHLELNARPTAAQRAVLADHNPCPPERAALQAIPDDDPRTTLDLIEEHPALRGVLPWPVLLDLLPALRIRHYSLSSSPAADPRHADLMVSLLPGGTGSGHLHTLRPGDTVLARVQPCREAFRLDPADPTPVILVAAGTGLAPFRGAVADRLAATQLAPALLYFGCDALEADYLHAEELQAAEAAGAVSLRPAFSARPVDGCRYVQHRIAAEAEEVGALLDAGARVYVCGDGNRMAPGVRAAFRELYAARTGATQEEAEVWLRELTAAGRYVEDVYVTG

A short description of one data set: Concentration of cytochrome P450 in cell-free extract by carbon monoxide difference spectrum (Omura and Sato). Particulars: effect of codon optimisation, expressed in E. coli BL21 (DE3), value ± SD. The procedure: Measurement is performed according to the method of Omura and Sato et al. (J Biol Chem, 239. 1964, 2370). That is to say, cytochrome P450 is analyzed quantitatively using the following formula, based on the difference in the absorbance of the reduced CO versus the reduced difference spectrum at 450 nm and 490 nm.
Measurement of the concentration of cytochrome P450 were performed according to the method of Omura and Sato et al. (J Biol Chem, 239. 1964, 2370). Cytochrome P450 concentrations of cell-free extracts of induced E. coli BL21 (DE3) Rosetta2 & Tuner cells harbouring either pHD05-SriC01, pHD02-SriC12-SriF05, pHD05-SriC14-SriF06, pHD05-SriC20, pHD05-SriC22 or pHD05-SriC51-SriF08 are shown in Table 2. Carbon monoxide difference spectra for P450SriC01, P450SriC12, P450SriC14, P450SriC20, P450SriC22 and P450SriC51 are shown in FIGS. 9, 10, 11, 19, 20 & 21 respectively.
The native and codon optimised P450sriC12 and ferredoxinsriF05 in pHD02-SriC12-SriF05 and pHD02-SriC12CO-SriF05CO respectively were introduced into E. coli BL21 (DE3). The recombinant strains were cultured and proteins were induced as in Example 2. The cell-free extract material was obtained as in Example 3 and carbon monoxide difference spectrums were measure to calculate the concentration of cytochrome P450.
The resulting plasmids containing the new mutants genes were transformed into recombinant E. coli strains for expression as described in Example 1, cultured and induced as described in Example 2, extracted and processed as described in Example 3 and tested for biocatalytic activity as described in Example 5 above. The carbon monoxide difference spectrum result of R63W mutant of codon optimised P450SriC12 is shown in FIG. 14 and the cytochrome P450 concentration of mutant P450SriC12 are shown in Table 5.
B1 yielded a P450 concentration of 3.6 ± 0.3 µM.

The data set is the same for the next values; noted with them: mutant P450SriC12 expressed in E. coli BL21 (DE3).
B2 yielded a P450 concentration of 12.4 µM.
The same measure, in the same setting: under B3 stands 3.5 µM.

Still in this data set, the particulars now being: native enzymes expressed in E. coli BL21 (DE3) Rosetta2 & Tuner cells, cell-free extract.
Molecule B4 had a P450 concentration of 18.4 µM.
Still for that read-out and setting: the same measure for B5: 15.4 µM.
The same measure, in the same setting: under B6 stands 25.0 µM; under B7, 18.8 µM; under B8, 33.5 µM.
Still for that read-out and setting: under B1 stands 3.6 µM.
